Source: article PMC10786891, “Massively parallel profiling of RNA-targeting CRISPR-Cas13d”
Changes are numbered by the printed parent chain. In names and notes the source's numbering stands.

T1: EsCas13d, nuclease-dead (Eubacterium siraeum, UniProt B0MS50, R295A;H300A;R849A;H854A)
T1 sequence: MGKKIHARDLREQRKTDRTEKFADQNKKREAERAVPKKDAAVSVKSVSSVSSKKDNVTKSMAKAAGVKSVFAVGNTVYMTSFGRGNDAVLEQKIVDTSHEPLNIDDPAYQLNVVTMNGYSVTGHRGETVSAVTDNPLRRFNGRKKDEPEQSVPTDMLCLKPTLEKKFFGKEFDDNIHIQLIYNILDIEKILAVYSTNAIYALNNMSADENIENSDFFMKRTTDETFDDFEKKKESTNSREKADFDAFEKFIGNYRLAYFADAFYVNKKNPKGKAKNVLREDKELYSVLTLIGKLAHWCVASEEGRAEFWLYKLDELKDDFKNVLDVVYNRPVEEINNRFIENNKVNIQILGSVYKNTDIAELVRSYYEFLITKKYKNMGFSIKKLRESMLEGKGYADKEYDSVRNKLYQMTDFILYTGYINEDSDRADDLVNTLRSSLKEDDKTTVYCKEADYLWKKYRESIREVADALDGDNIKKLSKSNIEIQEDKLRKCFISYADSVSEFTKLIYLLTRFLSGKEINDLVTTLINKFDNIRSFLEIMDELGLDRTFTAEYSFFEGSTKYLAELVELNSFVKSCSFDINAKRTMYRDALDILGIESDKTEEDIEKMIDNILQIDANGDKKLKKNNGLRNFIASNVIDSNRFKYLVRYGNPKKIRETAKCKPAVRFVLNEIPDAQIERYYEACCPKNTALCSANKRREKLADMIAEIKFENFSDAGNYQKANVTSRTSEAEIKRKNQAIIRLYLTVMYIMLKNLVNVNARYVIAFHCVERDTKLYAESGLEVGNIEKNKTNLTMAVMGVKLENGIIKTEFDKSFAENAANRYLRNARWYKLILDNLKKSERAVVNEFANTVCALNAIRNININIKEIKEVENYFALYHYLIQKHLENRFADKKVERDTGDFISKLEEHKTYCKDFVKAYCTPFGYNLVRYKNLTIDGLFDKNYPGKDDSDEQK

B1: target 1 insU 3' of 22,insU 3' of 1 (mixed)
RNA 1: CACCCGUGCAAAAAUGCAGGGGUCUAAAACUGAGCGGAUAACCUCUCUAUGG
RNA 2: GGGAAUGGAUCCACAUCUACGAAUUCGUACUCAUAGAGAGGUUAUCCGCUCAUCCGAGAUCGGAAGAGCACACGU
B2: target 1 A9U,A18C (mixed)
RNA 1: B1 RNA 1
RNA 2: GGGAAUGGAUCCACAUCUACGAAUUCGUACCAUCGAGAGGUUUUCCGCUCACCGAGAUCGGAAGAGCACACGU
B3: target 1 insC 3' of 12,insA 3' of 8 (mixed)
RNA 1: B1 RNA 1
RNA 2: GGGAAUGGAUCCACAUCUACGAAUUCGUACCAUAGAGAGGCUUAUACCGCUCACCGAGAUCGGAAGAGCACACGU
B4: target 1 C2A,G12C (mixed)
RNA 1: B1 RNA 1
RNA 2: B2 RNA 2 with C34A, G40C, U43A, C50A
B5: target 1 insA 3' of 5,insU 3' of 2 (mixed)
RNA 1: B1 RNA 1
RNA 2: GGGAAUGGAUCCACAUCUACGAAUUCGUACCAUAGAGAGGUUAUCCGACUCUACCGAGAUCGGAAGAGCACACGU
B6: target 1 insC 3' of 8 (mixed)
RNA 1: B1 RNA 1
RNA 2: GGGAAUGGAUCCACAUCUACGAAUUCGUACCAUAGAGAGGUUAUCCCGCUCACCGAGAUCGGAAGAGCACACGU
B7: target 1 insA 3' of 21,insG 3' of 16 (mixed)
RNA 1: B1 RNA 1
RNA 2: GGGAAUGGAUCCACAUCUACGAAUUCGUACCAAUAGAGGAGGUUAUCCGCUCACCGAGAUCGGAAGAGCACACGU
B8: target 1 A1U,U11G (mixed)
RNA 1: B1 RNA 1
RNA 2: B2 RNA 2 with C34A, U41G, U43A, A51U
B9: target 1 C4G,U10A (mixed)
RNA 1: B1 RNA 1
RNA 2: B2 RNA 2 with C34A, U42A, U43A, C48G
B10: target 1 del11,del13 (mixed)
RNA 1: B1 RNA 1
RNA 2: GGGAAUGGAUCCACAUCUACGAAUUCGUACCAUAGAGAGUAUCCGCUCACCGAGAUCGGAAGAGCACACGU
B11: target 1 insU 3' of 22,insA 3' of 2 (mixed)
RNA 1: B1 RNA 1
RNA 2: B1 RNA 2 with U53A
B12: target 1 insA 3' of 21,insC 3' of 9 (mixed)
RNA 1: B1 RNA 1
RNA 2: B7 RNA 2 with G39A, A40G, G42U, U44A, A45C
B13: target 1 insC 3' of 17,insC 3' of 3 (mixed)
RNA 1: B1 RNA 1
RNA 2: B1 RNA 2 with U31C, C32A, A33U, U34A, A35G, G36C, A52C, U53A
B14: target 1 insU 3' of 7,insA 3' of 5 (mixed)
RNA 1: B1 RNA 1
RNA 2: B3 RNA 2 with C41U, U43A, A44U, U45C, A46U, C48G, G49A
B15: target 1 insA 3' of 19,insA 3' of 11 (mixed)
RNA 1: B1 RNA 1
RNA 2: B7 RNA 2 with A33U, U34A, G39A, A40G, G42U, U43A
B16: target 1 del9,del13 (mixed)
RNA 1: B1 RNA 1
RNA 2: B10 RNA 2 with A41U
B17: target 1 U3G,G13C (mixed)
RNA 1: B1 RNA 1
RNA 2: B2 RNA 2 with C34A, G39C, U43A, U49G
B18: target 1 G13A,A14U (mixed)
RNA 1: B1 RNA 1
RNA 2: B2 RNA 2 with C34A, A38U, G39A, U43A
B19: target 1 insG 3' of 22,insA 3' of 3 (mixed)
RNA 1: B1 RNA 1
RNA 2: B1 RNA 2 with U31G, C51A, A52C, U53A
B20: target 1 insU 3' of 22,insG 3' of 1 (mixed)
RNA 1: B1 RNA 1
RNA 2: B1 RNA 2 with U53G
B21: target 1 insA 3' of 17,insC 3' of 3 (mixed)
RNA 1: B1 RNA 1
RNA 2: B1 RNA 2 with U31C, C32A, A33U, U34A, A35G, G36A, A52C, U53A
B22: target 1 G5C,G13U (mixed)
RNA 1: B1 RNA 1
RNA 2: B2 RNA 2 with C34A, G39U, U43A, G47C
B23: target 1 insU 3' of 5,insC 3' of 5 (mixed)
RNA 1: B1 RNA 1
RNA 2: B5 RNA 2 with A48U, U50C, C51U, U52C
B24: target 1 G15U,G17C (mixed)
RNA 1: B1 RNA 1
RNA 2: B2 RNA 2 with C34A, G35C, G37U, U43A
B25: target 1 insU 3' of 14,insC 3' of 3 (mixed)
RNA 1: B1 RNA 1
RNA 2: B3 RNA 2 with G39U, C41G, A46C, C48G, G49C, C50U, U51C
B26: target 1 G13U,A14U (mixed)
RNA 1: B1 RNA 1
RNA 2: B2 RNA 2 with C34A, A38U, G39U, U43A
B27: target 1 insA 3' of 6,insU 3' of 4 (mixed)
RNA 1: B1 RNA 1
RNA 2: B5 RNA 2 with G47A, A48G, C51U, U52C
B28: target 1 U3G,G5A (mixed)
RNA 1: B1 RNA 1
RNA 2: B2 RNA 2 with C34A, U43A, G47A, U49G
B29: target 1 C6A,C7A (mixed)
RNA 1: B1 RNA 1
RNA 2: B2 RNA 2 with C34A, U43A, C45A, C46A
B30: target 1 insU 3' of 22,insC 3' of 1 (mixed)
RNA 1: B1 RNA 1
RNA 2: B1 RNA 2 with U53C
B31: target 1 U3G,A9C (mixed)
RNA 1: B1 RNA 1
RNA 2: B2 RNA 2 with C34A, U43C, U49G
B32: target 1 G5U,A14C (mixed)
RNA 1: B1 RNA 1
RNA 2: B2 RNA 2 with C34A, A38C, U43A, G47U
B33: target 1 insC 3' of 9,insA 3' of 4 (mixed)
RNA 1: B1 RNA 1
RNA 2: B3 RNA 2 with C41U, U43A, A44C, A46C, C48G, G49C, C50A

molecular target: T1, EsCas13d, nuclease-dead; test: crRNA (strand 1, pre-loaded); Mg2+; 40 mM Tris-HCl pH 7.5, 150 mM NaCl, 6 mM MgCl2, 1 mM DTT, 0.1% Tween-20, 0.2 mg/ml BSA; 25 C; 10 min per concentration, then washed; details: tags: His6-TwinStrep-SUMO cleaved; N-terminal SNAP kept (SNAP-Surface 488); label: 3' end held by stalled T7 RNA polymerase

**Q.** For B1, which Kd is on record?
**A.** The Kd was 37 ± 6 nM.

**Q.** For B2, which Kd is on record?
**A.** The Kd was 60 ± 5 nM.

**Q.** For B3, which Kd is on record?
**A.** Its Kd is 12 ± 0.9 nM.

**Q.** How did the Kd turn out when B4 was run?
**A.** Its Kd is 7.21 ± 0.25 nM.

**Q.** How did the Kd turn out when B5 was run?
**A.** The Kd was 14.7 ± 0.9 nM.

**Q.** For B6, which Kd is on record?
**A.** The Kd was 13.2 ± 0.7 nM.

**Q.** Which Kd does the source give for B7 here?
**A.** Its Kd is 51 ± 5 nM.

**Q.** How did the Kd turn out when B8 was run?
**A.** Its Kd is 20.8 ± 0.9 nM.

**Q.** How did the Kd turn out when B9 was run?
**A.** The Kd was 4.87 ± 0.25 nM.

**Q.** For B10, which Kd is on record?
**A.** The Kd was 11.1 ± 0.9 nM.

**Q.** Which Kd does the source give for B11 here?
**A.** The Kd was 33.5 ± 2.8 nM.

**Q.** Which Kd does the source give for B12 here?
**A.** The Kd was 31.5 ± 2 nM.

**Q.** With B13 as the binder, how does the Kd read?
**A.** Its Kd is 60 ± 13 nM.

**Q.** How did the Kd turn out when B14 was run?
**A.** The Kd was 17.4 ± 1 nM.

**Q.** How did the Kd turn out when B15 was run?
**A.** The Kd was 41.3 ± 2.2 nM.

**Q.** Which Kd does the source give for B16 here?
**A.** Its Kd is 21.3 ± 1.1 nM.

**Q.** B17 was tested. Which Kd did it give?
**A.** Its Kd is 30.3 ± 2.3 nM.

**Q.** With B18 as the binder, how does the Kd read?
**A.** Its Kd is 6.6 ± 0.7 nM.

**Q.** For B19, which Kd is on record?
**A.** Its Kd is 25.6 ± 2.3 nM.

**Q.** Which Kd does the source give for B20 here?
**A.** Its Kd is 35 ± 4 nM.

**Q.** B21 was tested. Which Kd did it give?
**A.** The Kd was 14.8 ± 1.1 nM.

**Q.** B22 was tested. Which Kd did it give?
**A.** Its Kd is 40 ± 9 nM.

**Q.** How did the Kd turn out when B23 was run?
**A.** The Kd was 35 ± 4 nM.

**Q.** How did the Kd turn out when B24 was run?
**A.** Its Kd is 34.6 ± 3 nM.

**Q.** How did the Kd turn out when B25 was run?
**A.** The Kd was 80 ± 40 nM.

**Q.** With B26 as the binder, how does the Kd read?
**A.** Its Kd is 8.2 ± 0.4 nM.

**Q.** B27 was tested. Which Kd did it give?
**A.** Its Kd is 19.8 ± 1.1 nM.

**Q.** How did the Kd turn out when B28 was run?
**A.** Its Kd is 43 ± 4 nM.

**Q.** For B29, which Kd is on record?
**A.** The Kd was 7.47 ± 0.35 nM.

**Q.** For B30, which Kd is on record?
**A.** The Kd was 29.1 ± 2.4 nM.

**Q.** For B31, which Kd is on record?
**A.** Its Kd is 9.4 ± 0.7 nM.

**Q.** For B32, which Kd is on record?
**A.** The Kd was 20.7 ± 1.5 nM.

**Q.** B33 was tested. Which Kd did it give?
**A.** The Kd was 9.5 ± 1 nM.
